Results on 34 molecules are retold here after PMC12416549 (2024).

The test concerns the target T1, TNFR1 (Homo sapiens, UniProt P19438).
T1 chain: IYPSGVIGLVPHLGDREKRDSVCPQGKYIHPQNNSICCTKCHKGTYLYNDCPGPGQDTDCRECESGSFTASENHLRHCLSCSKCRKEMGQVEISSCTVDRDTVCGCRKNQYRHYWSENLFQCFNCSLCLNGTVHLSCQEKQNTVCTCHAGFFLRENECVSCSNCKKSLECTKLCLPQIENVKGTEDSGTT
As to the kind of experiment: yeast display SC50.

B1: R50A (designed binder)
chain: MTLQELLREEALRRAEAEAFRYALELLAEKFPEQKEYLLDLAEEIESQIASLSGVDVEDVRKFLDKEWAWVKELLAEHPAELAEVEAARAARLAELRAEVEAKVAA
On to B1, for which the “apparent Kd (screen)” value was 0.539 nM.

B2: F20V (designed binder)
chain: MTLQELLREEALRRAEAEAVRYALELLAEKFPEQKEYLLDLAEEIESQIRSLSGVDVEDVRKFLDKEWAWVKELLAEHPAELAEVEAARAARLAELRAEVEAKVAA
In the case of B2, the “apparent Kd (screen)” value was 0.49 nM.

B3: E18G (designed binder)
chain: MTLQELLREEALRRAEAGAFRYALELLAEKFPEQKEYLLDLAEEIESQIRSLSGVDVEDVRKFLDKEWAWVKELLAEHPAELAEVEAARAARLAELRAEVEAKVAA
For B3, the “apparent Kd (screen)” value came to 0.49 nM.

B4: A11S (designed binder)
chain: MTLQELLREESLRRAEAEAFRYALELLAEKFPEQKEYLLDLAEEIESQIRSLSGVDVEDVRKFLDKEWAWVKELLAEHPAELAEVEAARAARLAELRAEVEAKVAA
Turning to B4, the “apparent Kd (screen)” value turned out to be 0.956 nM.

B5: H78E (designed binder)
chain: MTLQELLREEALRRAEAEAFRYALELLAEKFPEQKEYLLDLAEEIESQIRSLSGVDVEDVRKFLDKEWAWVKELLAEEPAELAEVEAARAARLAELRAEVEAKVAA
Turning to B5, the “apparent Kd (screen)” value worked out at 0.653 nM.

B6: L82K (designed binder)
chain: MTLQELLREEALRRAEAEAFRYALELLAEKFPEQKEYLLDLAEEIESQIRSLSGVDVEDVRKFLDKEWAWVKELLAEHPAEKAEVEAARAARLAELRAEVEAKVAA
For the molecule B6, the “apparent Kd (screen)” value was determined as 2.48 nM.

B7: R13D (designed binder)
chain: MTLQELLREEALDRAEAEAFRYALELLAEKFPEQKEYLLDLAEEIESQIRSLSGVDVEDVRKFLDKEWAWVKELLAEHPAELAEVEAARAARLAELRAEVEAKVAA
As for B7, the “apparent Kd (screen)” value was 1.69 nM.

B8: Y37C (designed binder)
chain: MTLQELLREEALRRAEAEAFRYALELLAEKFPEQKECLLDLAEEIESQIRSLSGVDVEDVRKFLDKEWAWVKELLAEHPAELAEVEAARAARLAELRAEVEAKVAA
On to B8, for which the “apparent Kd (screen)” value came to 3 nM.

B9: A105Y (designed binder)
chain: MTLQELLREEALRRAEAEAFRYALELLAEKFPEQKEYLLDLAEEIESQIRSLSGVDVEDVRKFLDKEWAWVKELLAEHPAELAEVEAARAARLAELRAEVEAKVYA
B9: the “apparent Kd (screen)” value amounted to 0.79 nM.

B10: L6M (designed binder)
chain: MTLQEMLREEALRRAEAEAFRYALELLAEKFPEQKEYLLDLAEEIESQIRSLSGVDVEDVRKFLDKEWAWVKELLAEHPAELAEVEAARAARLAELRAEVEAKVAA
Regarding B10, the “apparent Kd (screen)” value turned out to be 1.86 nM.

B11: A83H (designed binder)
chain: MTLQELLREEALRRAEAEAFRYALELLAEKFPEQKEYLLDLAEEIESQIRSLSGVDVEDVRKFLDKEWAWVKELLAEHPAELHEVEAARAARLAELRAEVEAKVAA
On to B11, for which the “apparent Kd (screen)” value was 0.539 nM.

B12: V104F (designed binder)
chain: MTLQELLREEALRRAEAEAFRYALELLAEKFPEQKEYLLDLAEEIESQIRSLSGVDVEDVRKFLDKEWAWVKELLAEHPAELAEVEAARAARLAELRAEVEAKFAA
As for B12, the “apparent Kd (screen)” value came to 0.539 nM.

B13: A23G (designed binder)
chain: MTLQELLREEALRRAEAEAFRYGLELLAEKFPEQKEYLLDLAEEIESQIRSLSGVDVEDVRKFLDKEWAWVKELLAEHPAELAEVEAARAARLAELRAEVEAKVAA
As to B13, the “apparent Kd (screen)” value came to 0.49 nM.

B14: K66Q (designed binder)
chain: MTLQELLREEALRRAEAEAFRYALELLAEKFPEQKEYLLDLAEEIESQIRSLSGVDVEDVRKFLDQEWAWVKELLAEHPAELAEVEAARAARLAELRAEVEAKVAA
B14: the “apparent Kd (screen)” value came to 0.653 nM.

B15: L27G (designed binder)
chain: MTLQELLREEALRRAEAEAFRYALELGAEKFPEQKEYLLDLAEEIESQIRSLSGVDVEDVRKFLDKEWAWVKELLAEHPAELAEVEAARAARLAELRAEVEAKVAA
Take B15: the “apparent Kd (screen)” value was determined as 0.539 nM.

B16: E84S (designed binder)
chain: MTLQELLREEALRRAEAEAFRYALELLAEKFPEQKEYLLDLAEEIESQIRSLSGVDVEDVRKFLDKEWAWVKELLAEHPAELASVEAARAARLAELRAEVEAKVAA
As to B16, the “apparent Kd (screen)” value is 0.653 nM.

B17: R92S (designed binder)
chain: MTLQELLREEALRRAEAEAFRYALELLAEKFPEQKEYLLDLAEEIESQIRSLSGVDVEDVRKFLDKEWAWVKELLAEHPAELAEVEAARAASLAELRAEVEAKVAA
Consider B17, for which the “apparent Kd (screen)” value stood at 0.653 nM.

B18: A76Q (designed binder)
chain: MTLQELLREEALRRAEAEAFRYALELLAEKFPEQKEYLLDLAEEIESQIRSLSGVDVEDVRKFLDKEWAWVKELLQEHPAELAEVEAARAARLAELRAEVEAKVAA
Consider B18, for which the “apparent Kd (screen)” value is 0.446 nM.

B19: A11P (designed binder)
chain: MTLQELLREEPLRRAEAEAFRYALELLAEKFPEQKEYLLDLAEEIESQIRSLSGVDVEDVRKFLDKEWAWVKELLAEHPAELAEVEAARAARLAELRAEVEAKVAA
For B19, the “apparent Kd (screen)” value was found to be 2.25 nM.

B20: V71F (designed binder)
chain: MTLQELLREEALRRAEAEAFRYALELLAEKFPEQKEYLLDLAEEIESQIRSLSGVDVEDVRKFLDKEWAWFKELLAEHPAELAEVEAARAARLAELRAEVEAKVAA
With B20, the “apparent Kd (screen)” value came to 1.69 nM.

B21: R92G (designed binder)
chain: MTLQELLREEALRRAEAEAFRYALELLAEKFPEQKEYLLDLAEEIESQIRSLSGVDVEDVRKFLDKEWAWVKELLAEHPAELAEVEAARAAGLAELRAEVEAKVAA
Consider B21, for which the “apparent Kd (screen)” value was 0.593 nM.

B22: K72N (designed binder)
chain: MTLQELLREEALRRAEAEAFRYALELLAEKFPEQKEYLLDLAEEIESQIRSLSGVDVEDVRKFLDKEWAWVNELLAEHPAELAEVEAARAARLAELRAEVEAKVAA
On to B22, for which the “apparent Kd (screen)” value stood at 0.539 nM.

B23: E99D (designed binder)
chain: MTLQELLREEALRRAEAEAFRYALELLAEKFPEQKEYLLDLAEEIESQIRSLSGVDVEDVRKFLDKEWAWVKELLAEHPAELAEVEAARAARLAELRADVEAKVAA
With B23, the “apparent Kd (screen)” value was 0.539 nM.

B24: W68H (designed binder)
chain: MTLQELLREEALRRAEAEAFRYALELLAEKFPEQKEYLLDLAEEIESQIRSLSGVDVEDVRKFLDKEHAWVKELLAEHPAELAEVEAARAARLAELRAEVEAKVAA
For the molecule B24, the “apparent Kd (screen)” value is 2.73 nM.

B25: R14L (designed binder)
chain: MTLQELLREEALRLAEAEAFRYALELLAEKFPEQKEYLLDLAEEIESQIRSLSGVDVEDVRKFLDKEWAWVKELLAEHPAELAEVEAARAARLAELRAEVEAKVAA
For the molecule B25, the “apparent Kd (screen)” value was 0.956 nM.

B26: A102F (designed binder)
chain: MTLQELLREEALRRAEAEAFRYALELLAEKFPEQKEYLLDLAEEIESQIRSLSGVDVEDVRKFLDKEWAWVKELLAEHPAELAEVEAARAARLAELRAEVEFKVAA
Take B26: the “apparent Kd (screen)” value was 0.653 nM.

B27: A91C (designed binder)
chain: MTLQELLREEALRRAEAEAFRYALELLAEKFPEQKEYLLDLAEEIESQIRSLSGVDVEDVRKFLDKEWAWVKELLAEHPAELAEVEAARACRLAELRAEVEAKVAA
As for B27, the “apparent Kd (screen)” value turned out to be 0.593 nM.

B28: E86S (designed binder)
chain: MTLQELLREEALRRAEAEAFRYALELLAEKFPEQKEYLLDLAEEIESQIRSLSGVDVEDVRKFLDKEWAWVKELLAEHPAELAEVSAARAARLAELRAEVEAKVAA
In the case of B28, the “apparent Kd (screen)” value is 0.869 nM.

B29: K35A (designed binder)
chain: MTLQELLREEALRRAEAEAFRYALELLAEKFPEQAEYLLDLAEEIESQIRSLSGVDVEDVRKFLDKEWAWVKELLAEHPAELAEVEAARAARLAELRAEVEAKVAA
Turning to B29, the “apparent Kd (screen)” value was 1.27 nM.

B30: A42V (designed binder)
chain: MTLQELLREEALRRAEAEAFRYALELLAEKFPEQKEYLLDLVEEIESQIRSLSGVDVEDVRKFLDKEWAWVKELLAEHPAELAEVEAARAARLAELRAEVEAKVAA
As to B30, the “apparent Kd (screen)” value came to 0.718 nM.

B31: L6G (designed binder)
chain: MTLQEGLREEALRRAEAEAFRYALELLAEKFPEQKEYLLDLAEEIESQIRSLSGVDVEDVRKFLDKEWAWVKELLAEHPAELAEVEAARAARLAELRAEVEAKVAA
Turning to B31, the “apparent Kd (screen)” value turned out to be 22.2 nM.

B32: E16C (designed binder)
chain: MTLQELLREEALRRACAEAFRYALELLAEKFPEQKEYLLDLAEEIESQIRSLSGVDVEDVRKFLDKEWAWVKELLAEHPAELAEVEAARAARLAELRAEVEAKVAA
For B32, the “apparent Kd (screen)” value came out at 0.593 nM.

B33: L26Y (designed binder)
chain: MTLQELLREEALRRAEAEAFRYALEYLAEKFPEQKEYLLDLAEEIESQIRSLSGVDVEDVRKFLDKEWAWVKELLAEHPAELAEVEAARAARLAELRAEVEAKVAA
With B33, the “apparent Kd (screen)” value came to 0.593 nM.

B34: E73A (designed binder)
chain: MTLQELLREEALRRAEAEAFRYALELLAEKFPEQKEYLLDLAEEIESQIRSLSGVDVEDVRKFLDKEWAWVKALLAEHPAELAEVEAARAARLAELRAEVEAKVAA
As to B34, the “apparent Kd (screen)” value is 0.593 nM.
